Laboratory results: patent publication US20220073643A1 (NANJING GENSCRIPT BIOTECH, published 2022)
Changes are numbered by the printed parent chain.

B1: chimeric 207F8G5 (antibody, human IgG1, kappa, V domains shown)
VH: QAYLQQSGAELVRSGASVKMSCKASGFTFTSYNIHWVKQTPGQGLEWIGYISPGNGGSNYNLKFKDKATLTSATSSSTAYMQISSLTSEDSAVYFCATGRGFAYWGQGTLVTVSA
VL: DIVMTQSPSSLTVTPGEKVTMSCKSSQSLFNSGNQKNYLIWYQQKPGQPPKLLIYRASTRDSGVPDRFTGSGSGTDFTLTISNVQAEDLAIYYCQNDYSYPLTFGAGTKLELKR
notes: chimeric, human IgG1/kappa constant regions; also called 207F8G5-Chimeric
B2: chimeric 237D2A4 (antibody, human IgG1, kappa, V domains shown)
VH: QVQLKESGPGLVAPSQSLSITCTVSGFSLTSYGVSWVRQPPGKGLEWLGVIWGDGSTNYHSTLISRLRISKDKSKSQVFLKLNSLQTDDTATYYCAKAGRGNALDYWGQGTSVTVSS
VL: B1 VL with P15A, F30L, I40T, R56W, D61E, N83S, I91V, Y100F
notes: chimeric, human IgG1/kappa constant regions; also called 237D2A4-Chimeric
B3: chimeric 246B5F2 (antibody, human IgG1, kappa, V domains shown)
VH: EVMLVESGGGLMKPGGSLKLSCAASEFTFSNYAMSWVRQTPEKRLEWVATISSGRSSTYYPDSVKGRFTISRDNAKNTLYLQMSSLRSEDTAMYYCAGLGRGNAMEYWGQGTSVTVSS
VL: DIVMTQSPSSLTVTAGEKVTLSCKSSQSLLNSGNQKNYLTWYQQKPGQPPKLLIYWASTRESGVPDRFTGSGSGTDFILTINSVQAEDLAVYYCQNAYSYPFTFGSGTKLEIKR
notes: chimeric, human IgG1/kappa constant regions; also called 246B5F2-Chimeric
B4: chimeric 370E2B12C3 (antibody, human IgG1, kappa, V domains shown)
VH: QVQLKESGPGLVAPSQSLSITCTVSGFSLTTYGVHWVRQPPGKGLEWLGVIWAGGSTNYNSALMSRVSINKDNSKSQVFIKMNSLQADDTALYYCARAAYYGNGLDYWGQGTTLTVSS
VL: B3 VL with L21M, S28T, R60G, I78T, N82S, Y93F, S99F, S106G
notes: chimeric, human IgG1/kappa constant regions; also called 370E2B12C3-chimeric
B5: chimeric 232C5E3 (antibody, human IgG1, kappa, V domains shown)
VH: QAYLQQSGAELVRSGASVKMSCKASGYTFTSHNIHWIKQTPGKGLEWIGYIYPGNGGTNYNQKFKAKATLTADTSSSTAYMQISSLTSEDSAVYFCARDYYGNSFAYWGQGTLVTVSA
VL: DIMMTQSPSSLTETAGEKVSMSCKSSQSLLNSGNQKNYLTWYQQKPGQPPKLLIYWASTRESGVPDRFSGSGSGTDFTLTISSVQAEDLAVYYCQNGYRFPFTFGAGTKLELKR
notes: chimeric, human IgG1/kappa constant regions; also called 232C5E3-Chimeric
B6: chimeric 253E4F7 (antibody, human IgG1, kappa, V domains shown)
VH: EIQLQQSGPELMKPGASVKMSCKASGYSFTSYYIHWVKQSHGKSLEWIGYIDPFNGGTRYNQKFEGKATLTVDKSSTTAYMHLSSLTSEDSTVYYCASLRFLAYWGQGTLVTVSA
VL: B1 VL with P15A, S22T, F30L, I40T, L52V, Y55S, D61Q, N83S, I91V
notes: chimeric, human IgG1/kappa constant regions
B7: chimeric 185F2G12 (antibody, human IgG1, kappa, V domains shown)
VH: QAYLQQSGAELVRSGASVKMSCKASGYTFTSYNMHWVRQTPGQGLEWIGYIYPGNGGTNYSQKFKGKASLTADTSSTTAYMQISSLTSEDSAVYFCATGRGFAYWGQGTLVTVSA
VL: B1 VL with P15A, M21L, S32T, I40T, Y55F, D61E, S73F, N83S, I91V, Y98F
notes: as for B6
B8: chimeric 265E6G2 (antibody, human IgG1, kappa, V domains shown)
VH: B5 VH with H32Y, I34M, I37V, K43Q, A66G
VL: B1 VL with I2L, P15A, F30L, I40T, R56W, D61E, V84I, I91V, T103P, K113R
notes: as for B6
B9: chimeric 262C7C10 (antibody, human IgG1, kappa, V domains shown)
VH: B5 VH with S31N, H32Y, I37V, K43Q, T58N, N59Y, A66G, S77I
VL: B1 VL with P15A, S22N, F30L, I40T, R56W, D61E, N83S, S99Y
notes: as for B6
B10: chimeric 273C10E5 (antibody, human IgG1, kappa, V domains shown)
VH: QVQLQQSGAELVKPGASVKLSCKASGYTFTSFGINWLRQRPEQGLEWIGWIFPGDGNSKYNENFKGKATLTTDKSSSTAYMQVTRLTSEDSAVYFCARFYYGNSFANWGQGTLVTVSA
VL: B5 VL with M3V, E13V, S20T, S58A, S69A, G97D, R99F, F100Y
notes: as for B6
B11: chimeric 250F4G4 (antibody, human IgG1, kappa, V domains shown)
VH: B5 VH with I34M, I37V, K43Q, G57R, A66G, A97T
VL: B5 VL with M3V, T14K, A15V, K18R, L30F, S69T, G97D, R99W, F100Y
notes: as for B6
B12: chimeric 252E7C9 (antibody, human IgG1, kappa, V domains shown)
VH: QTYLQQSGAELVRSGASVKMSCRTSGYSFTSHNMHWVKQTPGQGLEWIGYIYPGNGGSYYNQKFKGKAILTADTSSSTAYMQISSLTSEDSAVYFCTRDYYGNSFVYWGQGTLVTVSA
VL: DVVMTQSPSSLTEKTGEKVSMSCKSSQSLLNSGNQKNYLTWYQQKPGQPPKLLIYWASTRESGVPDRFTGSGSGTDFTLTISSLQTEDLAIYYCQNNFRYPFTFGAGTKLELKR
notes: as for B6
B13: chimeric 257G7B9 (antibody, human IgG1, kappa, V domains shown)
VH: B5 VH with I34L, I37V, K43Q, G57N, A66G, A97T
VL: B5 VL with M3V, T14K, K18R, L30F, S69T, G97N, R99W
notes: as for B6
B14: chimeric 260G9E8 (antibody, human IgG1, kappa, V domains shown)
VH: B5 VH with Y3D, T30A, I34M, I37V, K43Q, N59K, K65T, A66G, S84T
VL: B5 VL with M3V, T14K, S22R, S69T, E87D, G97D, R99M
notes: as for B6
B15: chimeric 257B1G9 (antibody, human IgG1, kappa, V domains shown)
VH: B5 VH with I34M, I37V, K43Q, A66G, A97T
VL: B5 VL with M3V, T14R, K18R, L30F, S69T, G97D, F100Y
notes: as for B6
B16: chimeric 418G6A5 (antibody, human IgG1, kappa, V domains shown)
VH: DVQLVESGGGLVQPGGSRKLSCVASGFTFSSFGMHWVRQAPEKGLEWVAYISSGSSPMYYADTVKGRFTISRDNPKNTLFLQMTSLRSEDTAMYFCARIYYGNSFAYWGQGTLVTVSA
VL: B3 VL with L21M, I78T, N82S, F102L, S106A, I112L
notes: as for B6
B17: chimeric 407D8G1 (antibody, human IgG1, kappa, V domains shown)
VH: DVQLVESGGGLVQPGGSRKLSCAASGFTFSGFGMHWIRQTPEKGLEWVAYISSGSRPIYYADTVQGRFTISRDNPKNTLFLQMTSLRSEDTAMYFCARFYYGNSFDHWGQGTLVTVSS
VL: B5 VL with M3V, S10F, E13V, S20T, S69T, V91L, G97A, R99S, F102L
notes: as for B6
B18: chimeric 417A6F11 (antibody, human IgG1, kappa, V domains shown)
VH: EVQLQQSGPELVKPGASMKISCKASGYSFTGYTMNWVKQSHGKNLEWIGLINPYNGGTSYNQKFKGKATLTVDKSSSTAYMELLSLTSEDSAVYYCARGDYWGQGTTLTVSS
VL: DIVMTQSPSSLTVTAGEKVTMSCKSSQSLLNSGNQKNYLTWYQQKPGQPPKLLIYWASTRESGVPDRFTGSGSGTDFTLTISSVQAEDLAVYYCQNDYSYPTFGAGTKLELKR
notes: as for B6

Target: T1, human Claudin18.2 (human)
T1 construct: also called CLDN18.2
Assay: FACS, Claudin18.2-HEK293 cells
Procedure: (§1) The binding of chimeric antibodies to Claudin18.2 expressed on HEK293 cells was determine by FACS analysis. Briefly, HEK293 cells expressing human Claudin18.2 as prepared in the foregoing Example were harvested and incubated with anti-Claudin18.2 mAbs at 4° C. for 40 min, followed by fluorophore (iFluor 647)-labeled goat […] IgG (H+L) secondary antibodies at 4° C. for 0.5 hour. The samples were then analyzed by flow cytometry.
After initial screening of cell binding with transfected supernatants, the binding pattern of chimeric and up to 3 humanized antibodies on Claudin18.2 expressed on HEK293 cells were plotted with antibody in 3× serial dilutions, starting concentration of 45 μg/ml, following the protocol described in Example 3.

Binder	EC50	Span
B1	0.17 µg/mL	11800
B2	0.0923 µg/mL	14800
B3	0.192 µg/mL	12400
B4	0.772 µg/mL	4570
B5	0.317 µg/mL	69700

Target: T1, human Claudin18.2
Assay: cell-based or functional assay

Binder	CDC % Relative activity	CDC EC50
B1	1300%	0.207 µg/mL
B2	1170%	0.231 µg/mL
B6	1320%	0.205 µg/mL
B7	2100%	0.101 µg/mL
B8	487%	0.472 µg/mL
B9	666%	0.345 µg/mL
B3	985%	0.274 µg/mL
B10	854%	0.269 µg/mL
B4	1200%	0.192 µg/mL
B11	875%	0.309 µg/mL
B12	991%	0.272 µg/mL
B5	2130%	0.0994 µg/mL
B13	760%	0.302 µg/mL
B14	684%	0.336 µg/mL
B15	642%	0.358 µg/mL

Target: T1, human Claudin18.2
Assay: FACS, Claudin18.2-HEK293 cells
Remark: another data set of the same source
Procedure: as §1

Binder	EC50
B1	0.554 nM
B2	0.596 nM
B6	0.561 nM
B7	0.634 nM
B8	1.05 nM
B9	1.17 nM
B3	1.24 nM
B10	1.01 nM
B4	0.792 nM
B11	1.02 nM
B12	0.331 nM
B5	1.05 nM
B13	0.742 nM
B14	1.05 nM
B15	1.17 nM

Target: T1, human Claudin18.2
Assay: cell-based or functional assay
Remark: another data set of the same source

Binder	ADCC % Relative activity	ADCC EC50
B1	114%	0.0214 µg/mL
B2	169%	0.0214 µg/mL
B6	138%	0.0225 µg/mL
B7	399%	0.00886 µg/mL
B8	77.8%	0.0321 µg/mL
B9	105%	0.0237 µg/mL
B3	157%	0.023 µg/mL
B10	92.1%	0.0275 µg/mL
B4	75.7%	0.0335 µg/mL
B11	109%	0.0281 µg/mL
B12	98.7%	0.0311 µg/mL
B5	452%	0.00782 µg/mL
B13	55.8%	0.0556 µg/mL
B14	104%	0.024 µg/mL
B15	68.2%	0.0454 µg/mL

Target: T1, human Claudin18.2
Assay: FACS, Claudin18.2-HEK293 cells
Remark: another data set of the same source
Procedure: as §1

Binder	EC50
B16	0.595 nM
B17	0.533 nM
B18	2.48 nM
